Laboratory results taken from article PMC12583656, “Conserved interfaces mediate multiple protein–protein interactions in a prokaryotic metabolon” (Molecular Systems Biology, 2025).

T1: FolK, purified protein (E. coli, UniProt P26281 1-159)
T1 construct: FolK of E. coli (encoded by the gene folK); Expression and purification are not described
T1 sequence: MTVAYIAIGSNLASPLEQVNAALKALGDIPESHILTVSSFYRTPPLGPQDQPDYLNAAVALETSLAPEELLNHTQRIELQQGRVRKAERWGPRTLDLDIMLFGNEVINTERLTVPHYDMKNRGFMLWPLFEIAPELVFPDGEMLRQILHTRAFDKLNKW


How the values were obtained:
[1] = target: adenylate kinase (Adk), split-YFP fusion (E. coli) (UniProt P69441); assay: split reporter (BiFC, NanoBiT); split monomeric EYFP (155/156) in living E. coli BW27783; NYFP fusion IPTG-induced, CYFP fusion arabinose-induced (0.2% arabinose, 1 mM IPTG), 30 °C 4-5 h; mean fluorescence intensity (MFI) of 30,000 cells by flow cytometry; both configurations measured, the higher value used; inducers also titrated for three pairs
adenylate kinase (Adk), split-YFP fusion (E. coli), sequence (P69441 whole entry, the tested form may be a part): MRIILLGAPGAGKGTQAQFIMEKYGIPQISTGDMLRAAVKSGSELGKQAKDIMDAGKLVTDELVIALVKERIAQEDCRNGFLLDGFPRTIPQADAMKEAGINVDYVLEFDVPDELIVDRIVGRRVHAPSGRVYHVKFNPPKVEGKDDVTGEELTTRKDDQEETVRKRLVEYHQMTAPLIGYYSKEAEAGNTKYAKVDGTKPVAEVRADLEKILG

[2] = target: T1, FolK, purified protein; assay: Raman spectroscopy; titration: DHFR 7.5-50 µM, FolK fixed at 15 µM; area of the interaction-specific peak at ~1663 cm^-1 against DHFR concentration, hyperbolic fit; conditions: both partners purified

Row | Molecule | MFI (mean YFP fluorescence intensity) [1] | Kd [2]
1 | dihydrofolate reductase (DHFR, FolA), split-YFP fusion (from UniProt P0ABQ4 1-159) (enzyme) | 641 | –
2 | DHFR, wild type, purified protein (enzyme, E. coli, dihydrofolate reductase (DHFR, FolA) of E. coli; Expression and purification are not described; also called WT DHFR; WT-DHFR) MISLIAALAVDRVIGMENAMPWNLPADLAWFKRNTLNKPVIMGRHTWESIGRPLPGRKNIILSSQPGTDDRVTWVKSVDEAIAACGDVPEIMVIGGGRVYEQFLPKAQKLYLTHIDAEVEGDTHFPDYEPDDWESVFSEFHDADAQNSHSYCFEILERR | – | 22 µM
3 | D132H DHFR, purified protein (enzyme, E. coli, dihydrofolate reductase (DHFR) of E. coli with one substitution; as m28; Expression and purification are not described; also called D132H mutant of DHFR) MISLIAALAVDRVIGMENAMPWNLPADLAWFKRNTLNKPVIMGRHTWESIGRPLPGRKNIILSSQPGTDDRVTWVKSVDEAIAACGDVPEIMVIGGGRVYEQFLPKAQKLYLTHIDAEVEGDTHFPDYEPDHWESVFSEFHDADAQNSHSYCFEILERR | – | 8.1 µM
4 | N23V DHFR, purified protein (enzyme, E. coli, dihydrofolate reductase (DHFR) of E. coli with one substitution; as m28; Expression and purification are not described; also called N23V mutant of DHFR) MISLIAALAVDRVIGMENAMPWVLPADLAWFKRNTLNKPVIMGRHTWESIGRPLPGRKNIILSSQPGTDDRVTWVKSVDEAIAACGDVPEIMVIGGGRVYEQFLPKAQKLYLTHIDAEVEGDTHFPDYEPDDWESVFSEFHDADAQNSHSYCFEILERR | – | 5.1 µM
5 | D144N DHFR, purified protein (enzyme, E. coli, dihydrofolate reductase (DHFR) of E. coli with one substitution; as m28; Expression and purification are not described; also called D144N mutant of DHFR) MISLIAALAVDRVIGMENAMPWNLPADLAWFKRNTLNKPVIMGRHTWESIGRPLPGRKNIILSSQPGTDDRVTWVKSVDEAIAACGDVPEIMVIGGGRVYEQFLPKAQKLYLTHIDAEVEGDTHFPDYEPDDWESVFSEFHDANAQNSHSYCFEILERR | – | 10 µM
